{
  "source": "the RNAGym collection of RNA variant scans (doi:10.1021/acssynbio.7b00057)",
  "parents": {"B1": {"name": "Pistol ribozyme (parent)", "chain": "GGGUCGUUGUUCCAUAAUCGCGUGGAUAUGGCACGCAAGUUUCUACCGGGCACCGUAAAUGUCCGACUGGAGCCGUUCGGGCGGCUAUAAACAGACCUCAGGCCCGAAGCGUGGCGGCACCUGCCGCCGGUGGUAAAAAAGAUCGGAAGAGCACACGUCU"}},
  "data": [
    {"variants_of": "B1", "assay": "aptazyme ON/OFF ratio, guanine; higher = stronger switching; co-transcriptional cleavage with and without guanine", "values": [
      {"variant": "GGGUCGGACUGGAAUAAUCGCGUGGAUAUGGCACGCAAGUUUCUACCGGGCACCGUAAAUGUCCGACUGGAGCCGUUCGGGCGGCUAUAAACAGACCUCAGGCCCGAAGCGUGGCGGCACCUGCCGCCGGUGGUAAAAAAGAUCGGAAGAGCACACGUCU", "note": "[U7G U8A G9C U11G C12G C13A]", "aptazyme ON/OFF ratio": 1.01},
      {"variant": "GGGUCGGACUGGUAUAAUCGCGUGGAUAUGGCACGCAAGUUUCUACCGGGCACCGUAAAUGUCCGACUGGAGCCGUUCGGGCGGCUAUAAACAGACCUCAGGCCCGAAGCGUGGCGGCACCUGCCGCCGGUGGUAAAAAAGAUCGGAAGAGCACACGUCU", "note": "[U7G U8A G9C U11G C12G C13U]", "aptazyme ON/OFF ratio": 1.03},
      {"variant": "GGGUCGGACUGGGAUAAUCGCGUGGAUAUGGCACGCAAGUUUCUACCGGGCACCGUAAAUGUCCGACUGGAGCCGUUCGGGCGGCUAUAAACAGACCUCAGGCCCGAAGCGUGGCGGCACCUGCCGCCGGUGGUAAAAAAGAUCGGAAGAGCACACGUCU", "note": "[U7G U8A G9C U11G C12G C13G]", "aptazyme ON/OFF ratio": 1.03},
      {"variant": "GGGUCGGACUCUGAUAAUCGCGUGGAUAUGGCACGCAAGUUUCUACCGGGCACCGUAAAUGUCCGACUGGAGCCGUUCGGGCGGCUAUAAACAGACCUCAGGCCCGAAGCGUGGCGGCACCUGCCGCCGGUGGUAAAAAAGAUCGGAAGAGCACACGUCU", "note": "[U7G U8A G9C U11C C12U C13G]", "aptazyme ON/OFF ratio": 1.08},
      {"variant": "GGGUCGGACUCUUAUAAUCGCGUGGAUAUGGCACGCAAGUUUCUACCGGGCACCGUAAAUGUCCGACUGGAGCCGUUCGGGCGGCUAUAAACAGACCUCAGGCCCGAAGCGUGGCGGCACCUGCCGCCGGUGGUAAAAAAGAUCGGAAGAGCACACGUCU", "note": "[U7G U8A G9C U11C C12U C13U]", "aptazyme ON/OFF ratio": 1.03},
      {"variant": "GGGUCGGACUCUAAUAAUCGCGUGGAUAUGGCACGCAAGUUUCUACCGGGCACCGUAAAUGUCCGACUGGAGCCGUUCGGGCGGCUAUAAACAGACCUCAGGCCCGAAGCGUGGCGGCACCUGCCGCCGGUGGUAAAAAAGAUCGGAAGAGCACACGUCU", "note": "[U7G U8A G9C U11C C12U C13A]", "aptazyme ON/OFF ratio": 1.06},
      {"variant": "GGGUCGGACUGAGAUAAUCGCGUGGAUAUGGCACGCAAGUUUCUACCGGGCACCGUAAAUGUCCGACUGGAGCCGUUCGGGCGGCUAUAAACAGACCUCAGGCCCGAAGCGUGGCGGCACCUGCCGCCGGUGGUAAAAAAGAUCGGAAGAGCACACGUCU", "note": "[U7G U8A G9C U11G C12A C13G]", "aptazyme ON/OFF ratio": 1.06},
      {"variant": "GGGUCGGACUGAUAUAAUCGCGUGGAUAUGGCACGCAAGUUUCUACCGGGCACCGUAAAUGUCCGACUGGAGCCGUUCGGGCGGCUAUAAACAGACCUCAGGCCCGAAGCGUGGCGGCACCUGCCGCCGGUGGUAAAAAAGAUCGGAAGAGCACACGUCU", "note": "[U7G U8A G9C U11G C12A C13U]", "aptazyme ON/OFF ratio": 1.06},
      {"variant": "GGGUCGGACUGAAAUAAUCGCGUGGAUAUGGCACGCAAGUUUCUACCGGGCACCGUAAAUGUCCGACUGGAGCCGUUCGGGCGGCUAUAAACAGACCUCAGGCCCGAAGCGUGGCGGCACCUGCCGCCGGUGGUAAAAAAGAUCGGAAGAGCACACGUCU", "note": "[U7G U8A G9C U11G C12A C13A]", "aptazyme ON/OFF ratio": 1.05},
      {"variant": "GGGUCGGACUCCUAUAAUCGCGUGGAUAUGGCACGCAAGUUUCUACCGGGCACCGUAAAUGUCCGACUGGAGCCGUUCGGGCGGCUAUAAACAGACCUCAGGCCCGAAGCGUGGCGGCACCUGCCGCCGGUGGUAAAAAAGAUCGGAAGAGCACACGUCU", "note": "[U7G U8A G9C U11C C13U]", "aptazyme ON/OFF ratio": 1.05},
      {"variant": "GGGUCGGACUCCGAUAAUCGCGUGGAUAUGGCACGCAAGUUUCUACCGGGCACCGUAAAUGUCCGACUGGAGCCGUUCGGGCGGCUAUAAACAGACCUCAGGCCCGAAGCGUGGCGGCACCUGCCGCCGGUGGUAAAAAAGAUCGGAAGAGCACACGUCU", "note": "[U7G U8A G9C U11C C13G]", "aptazyme ON/OFF ratio": 1.05},
      {"variant": "GGGUCGGACUCCAAUAAUCGCGUGGAUAUGGCACGCAAGUUUCUACCGGGCACCGUAAAUGUCCGACUGGAGCCGUUCGGGCGGCUAUAAACAGACCUCAGGCCCGAAGCGUGGCGGCACCUGCCGCCGGUGGUAAAAAAGAUCGGAAGAGCACACGUCU", "note": "[U7G U8A G9C U11C C13A]", "aptazyme ON/OFF ratio": 1.06},
      {"variant": "GGGUCGGACUGCCAUAAUCGCGUGGAUAUGGCACGCAAGUUUCUACCGGGCACCGUAAAUGUCCGACUGGAGCCGUUCGGGCGGCUAUAAACAGACCUCAGGCCCGAAGCGUGGCGGCACCUGCCGCCGGUGGUAAAAAAGAUCGGAAGAGCACACGUCU", "note": "[U7G U8A G9C U11G]", "aptazyme ON/OFF ratio": 1.04},
      {"variant": "GGGUCGGACUGGCAUAAUCGCGUGGAUAUGGCACGCAAGUUUCUACCGGGCACCGUAAAUGUCCGACUGGAGCCGUUCGGGCGGCUAUAAACAGACCUCAGGCCCGAAGCGUGGCGGCACCUGCCGCCGGUGGUAAAAAAGAUCGGAAGAGCACACGUCU", "note": "[U7G U8A G9C U11G C12G]", "aptazyme ON/OFF ratio": 1.04},
      {"variant": "GGGUCGGACUGUCAUAAUCGCGUGGAUAUGGCACGCAAGUUUCUACCGGGCACCGUAAAUGUCCGACUGGAGCCGUUCGGGCGGCUAUAAACAGACCUCAGGCCCGAAGCGUGGCGGCACCUGCCGCCGGUGGUAAAAAAGAUCGGAAGAGCACACGUCU", "note": "[U7G U8A G9C U11G C12U]", "aptazyme ON/OFF ratio": 1.14},
      {"variant": "GGGUCGGACUGACAUAAUCGCGUGGAUAUGGCACGCAAGUUUCUACCGGGCACCGUAAAUGUCCGACUGGAGCCGUUCGGGCGGCUAUAAACAGACCUCAGGCCCGAAGCGUGGCGGCACCUGCCGCCGGUGGUAAAAAAGAUCGGAAGAGCACACGUCU", "note": "[U7G U8A G9C U11G C12A]", "aptazyme ON/OFF ratio": 1.03},
      {"variant": "GGGUCGGACUCUCAUAAUCGCGUGGAUAUGGCACGCAAGUUUCUACCGGGCACCGUAAAUGUCCGACUGGAGCCGUUCGGGCGGCUAUAAACAGACCUCAGGCCCGAAGCGUGGCGGCACCUGCCGCCGGUGGUAAAAAAGAUCGGAAGAGCACACGUCU", "note": "[U7G U8A G9C U11C C12U]", "aptazyme ON/OFF ratio": 1.11},
      {"variant": "GGGUCGGACUGUAAUAAUCGCGUGGAUAUGGCACGCAAGUUUCUACCGGGCACCGUAAAUGUCCGACUGGAGCCGUUCGGGCGGCUAUAAACAGACCUCAGGCCCGAAGCGUGGCGGCACCUGCCGCCGGUGGUAAAAAAGAUCGGAAGAGCACACGUCU", "note": "[U7G U8A G9C U11G C12U C13A]", "aptazyme ON/OFF ratio": 1.05}
    ]}
  ]
}
